The record followed here is patent US20210040221A1 (published 2021).

For assay [1], the target named is T1, recombinant human CD25 his tagged (UniProt P01589 22-213).
T1 chain: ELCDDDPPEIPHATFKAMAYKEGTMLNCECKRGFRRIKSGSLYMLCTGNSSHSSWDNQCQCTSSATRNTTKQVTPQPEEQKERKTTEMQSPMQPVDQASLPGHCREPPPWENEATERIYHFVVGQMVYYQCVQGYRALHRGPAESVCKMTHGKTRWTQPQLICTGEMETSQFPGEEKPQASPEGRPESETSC
The experiment in a line: SPR (Biacore 2000).

The target in assay [2] is T1, recombinant human CD25 his tagged. The experiment in a line: SPR (Biacore 2000).

Read-outs that look alike come from different tables or passages of the source.

B1: Antibody 3 (antibody, V domains shown)
VH: EVQLLESGGGLVQPGGSLRLSCAASGFTFSSYGMSWVRQAPGKGLELVSTINGYGDTTYYPDSVKGRFTISRDNAKNTLYLQMNSLRAEDTAVYFCARDRDYGNSYYYALDYWGQGTLVTVSS
VL: EIVLTQSPGTLSLSPGERATLSCRASSSVSFMHWLQQKPGQAPRPLIYATSNLASGIPDRFSGSGSGTDYTLTISRLEPEDFAVYYCQQWSSNPPAFGQGTKLEIK
For B1, the Kd in assay [1] is 6.1 nM.

B2: Antibody 1 (antibody, V domains shown)
VH: EVQLLESGGGLVQPGGSLRLSCAASGFTFSSYGMSWVRQAPGKGLELVSTINGYGDTTYYPDSVKGRFTISRDNSKNTLYLQMNSLRAEDTAVYYCARDRDYGNSYYYALDYWGQGTLVTVSS
VL: EIVLTQSPGTLSLSPGERATLSCRASSSVSFMHWLQQKPGQAPRPLIYATSNLASGIPDRFSGSGSGTDYTLTISRLEPEDFAVYYCQQWSSNPPAFGQGTKLEIK
For B2, the Kd in assay [2] stood at 4.7 nM.

B3: Antibody 2 (antibody, V domains shown)
VH: EVQLLESGGGLVQPGGSLRLSCAASGFTFSSYGMSWVRQAPGKGLELVSTINGYGDTTYYPDSVKGRFTISRDNSKNTLYLQMNSLRAEDTAVYYCARDRDYGNSYYYALDYWGQGTLVTVSS
VL: QIVLTQSPGTLSLSPGERATLSCRASSSVSFMHWLQQKPGQSPRPLIYATSNLASGIPDRFSGSGSGTDYTLTISRLEPEDFAVYYCQQWSSNPPAFGQGTKLEIK
For B3, the Kd in assay [2] turned out to be 6.1 nM.

B4: Antibody 4 (antibody, V domains shown)
VH: EVQLLESGGGLVQPGGSLRLSCAASGFTFSSYGMSWVRQAPGKGLELVSTINGYGDTTYYPDSVKGRFTISRDNAKNTLYLQMNSLRAEDTAVYFCARDRDYGNSYYYALDYWGQGTLVTVSS
VL: QIVLTQSPGTLSLSPGERATLSCRASSSVSFMHWLQQKPGQSPRPLIYATSNLASGIPDRFSGSGSGTDYTLTISRLEPEDFAVYYCQQWSSNPPAFGQGTKLEIK
Regarding B4, in assay [1], the Kd turned out to be 5.5 nM.
